Reference: the supplement of paper PMC9170038

System: MS2 coat protein
Test: apparent KD of MS2 coat protein; designed switch direction (-1 OFF switch, 1 ON switch): 1; higher = weaker reporter binding
Summary of the method: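 The buffer was Tris-HCl pH 7.5 with KCl, MgCl2, BSA, DTT, tRNA and Tween-20. In it, SNAP-549-labelled MS2 coat protein was titrated in doubling steps from 0.7 or 1.5 nM to 3 µM over chip-bound RNA switches transcribed by stalled E. coli RNA polymerase on Illumina chips. Apparent KD is the per-design median over clusters of curve fits to normalised fluorescence.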

[1] = Eterna round: R95, input ligand: FMN 200 uM
[2] = Eterna round: R95, input ligand: microRNA oligo, concentration not stated
[3] = Eterna round: R95, input ligand: none
[4] = input ligand: microRNA oligo, concentration not stated

With “GGUCCAGCCUGAGCUGGACAAAAGCAUGUACAUGAGGAUCACCCAUGUCAUGUACAAGCUUUUUGCUCGUCUUAAUA [Mat - hsa-mir-208a - 89] (puzzle: Sensor for hsa-mir-208a)” the “apparent KD of MS2 coat protein” value [1] was 583 nM, the “apparent KD of MS2 coat protein” value [2] was 15 nM and the “apparent KD of MS2 coat protein” value [3] was 548 nM.
For “GGUCCAGCCUGAGCUGGACAAAAGCAUGUACAUGAGGAUCACCCAUGUCAUGUAUAAGCUUUUUGCUCGUCUUAAAA [JL mod - D87 - 11] (puzzle: Sensor for hsa-mir-208a)”, the “apparent KD of MS2 coat protein” value [1] was 20.4 nM, the “apparent KD of MS2 coat protein” value [2] was 10.5 nM and the “apparent KD of MS2 coat protein” value [3] was 20 nM.
In the case of “GGUCCAGCCUGAGCUGGACAAAAGCAUGUACAUGAGGAUCACCCAUGUUCAUGUACAAGCUUUUUGCUCGUCUUAUU [salish99_208a_r3_049] (puzzle: Sensor for hsa-mir-208a)”, the “apparent KD of MS2 coat protein” value [1] is reported as 560 nM, the “apparent KD of MS2 coat protein” value [2] is reported as 15.8 nM and the “apparent KD of MS2 coat protein” value [3] is reported as 687 nM.
In the case of “GGUCCAGCCUGAGCUGGACCGAAGCGUGUACAUGAGGAUCACCCAUGUCAUGUACAAGCUUUUUGCUCGUCUUAUUG [JL-shm-2.10 JL Mod] (puzzle: Sensor for hsa-mir-208a)”, the “apparent KD of MS2 coat protein” value [1] is reported as 149 nM, the “apparent KD of MS2 coat protein” value [2] is reported as 18.8 nM and the “apparent KD of MS2 coat protein” value [3] is reported as 285 nM.
With “GGUCCGGCCUGAGCUGGACCGAAGCAUGUACAUGAGGAUCACCCAUGUCAUGUACAGGCUUCUUGCUCGUCUUGUUG [JL-shm-2.15 JL Mod] (puzzle: Sensor for hsa-mir-208a)” the “apparent KD of MS2 coat protein” value [1] was 90.3 nM, the “apparent KD of MS2 coat protein” value [2] was 16.6 nM and the “apparent KD of MS2 coat protein” value [3] was 219 nM.
With “GGUCGGACUACAUGAGGAUCACCCAUGUGUGCGGAAACGCCAUAGGAUAUCUGUCCGAAAAGGUCAGAGAAGGGUGAACCGACC [Fiskers NG3ss - 67] (Eterna round: R96, puzzle: Same State NG 3)” the “apparent KD of MS2 coat protein” value (input ligand: FMN 200 uM) was 882 nM, the “apparent KD of MS2 coat protein” value [4] was 30.1 nM and the “apparent KD of MS2 coat protein” value (input ligand: none) was 73.9 nM.
With “GGUGCAAUUAACGCCUACAUGAGGAUCACCCAUGUAUGUAGGCAGGAUAUCGUUUGCAAAGCAAACGAGAAGGGCUGUAGUACC [Mat - Same State NG 3 - JL Mod - D40] (Eterna round: R96, puzzle: Same State NG 3)” the “apparent KD of MS2 coat protein” value (input ligand: FMN 200 uM) was 51.1 nM, the “apparent KD of MS2 coat protein” value [4] was 109 nM and the “apparent KD of MS2 coat protein” value (input ligand: none) was 131 nM.
With “GGUGCCAAUAAAGCCUACAUGAGGAUCACCCAUGUAUGUAGGCAGGAUAUCGUUUGCAAAGCAAACGAGAAGGGCCGAGGCACC [Mat - Same State NG 3 - JL Mod - D55] (Eterna round: R96, puzzle: Same State NG 3)” the “apparent KD of MS2 coat protein” value (input ligand: FMN 200 uM) was 18 nM, the “apparent KD of MS2 coat protein” value [4] was 29.3 nM and the “apparent KD of MS2 coat protein” value (input ligand: none) was 39.6 nM.
With “GGUGCCAAUAAAGCCUACAUGAGGAUCACCCAUGUAUGUAGGCAGGAUAUCGUUUGCAAAGCAAACGAGAAGGGCUGAGGCACC [Mat - Same State NG 3 - JL Mod - D52] (Eterna round: R96, puzzle: Same State NG 3)” the “apparent KD of MS2 coat protein” value (input ligand: FMN 200 uM) was 18.4 nM, the “apparent KD of MS2 coat protein” value [4] was 39.8 nM and the “apparent KD of MS2 coat protein” value (input ligand: none) was 38.8 nM.
With “GGUGCCAAUAAAGCCUACAUGAGGAUCACCCAUGUAUGUAGGCAGGAUAUCGUUUGCUUUGCAAACGAGAAGGGCUGAGGCACC [JL SSNG3 1.18] (Eterna round: R96, puzzle: Same State NG 3)” the “apparent KD of MS2 coat protein” value (input ligand: FMN 200 uM) was 16.8 nM, the “apparent KD of MS2 coat protein” value [4] was 28.6 nM and the “apparent KD of MS2 coat protein” value (input ligand: none) was 38.6 nM.
With “GGUGCGAAAUAAGCCUACAUGAGGAUCACCCAUGUAUGUAGGCAGGAUAUCGUAUGCAAAGCAUACGAGAAGGGCUGUCGCACC [Mat - Same State NG 3 - JL Mod - D48] (Eterna round: R96, puzzle: Same State NG 3)” the “apparent KD of MS2 coat protein” value (input ligand: FMN 200 uM) was 33.2 nM, the “apparent KD of MS2 coat protein” value [4] was 61 nM and the “apparent KD of MS2 coat protein” value (input ligand: none) was 94.6 nM.
With “GGUGGCGAAAGCGACAUGAGGAUCACCCAUGUCAUCGGAGGGCAGGAUAUCCGGCGAAAGCCGAAGGAGAAGGGUCGAAAAGAA [ssng3v2 b] (Eterna round: R96, puzzle: Same State NG 3)” the “apparent KD of MS2 coat protein” value (input ligand: FMN 200 uM) was 62.4 nM, the “apparent KD of MS2 coat protein” value [4] was 25.8 nM and the “apparent KD of MS2 coat protein” value (input ligand: none) was 43.6 nM.
In the case of “GGUGGGUUGCUGCCGGCACAUGAGGAUCACCCAUGUUUUGGGAAGGAUAUGGUACCUAUUUGGUACCAGAAGGUCCCGUUGGUG [salish99_SSNG3_r04_709] (Eterna round: R96, puzzle: Same State NG 3)”, the “apparent KD of MS2 coat protein” value (input ligand: FMN 200 uM) is reported as 978 nM, the “apparent KD of MS2 coat protein” value [4] is reported as 449 nM and the “apparent KD of MS2 coat protein” value (input ligand: none) is reported as 898 nM.
In the case of “GGUGGGUUGCUGCCGGCACAUGAGGAUCACCCAUGUUUUGGGAAGGAUAUGGUCCCUCUUUGGUGCCAGAAGGUCCCGUUGGUC [salish99_SSNG3_r04_715] (Eterna round: R96, puzzle: Same State NG 3)”, the “apparent KD of MS2 coat protein” value (input ligand: FMN 200 uM) is reported as 232 nM, the “apparent KD of MS2 coat protein” value [4] is reported as 75.3 nM and the “apparent KD of MS2 coat protein” value (input ligand: none) is reported as 165 nM.
For “GGUGGGUUGCUGCCGGCACAUGAGGAUCACCCAUGUUUUGGGAAGGAUAUGGUCCCUCUUUGGUGCCAGAAGGUCCCGUUGGUG [salish99_SSNG3_r04_714] (Eterna round: R96, puzzle: Same State NG 3)”, the “apparent KD of MS2 coat protein” value (input ligand: FMN 200 uM) was 691 nM, the “apparent KD of MS2 coat protein” value [4] was 402 nM and the “apparent KD of MS2 coat protein” value (input ligand: none) was 743 nM.
